Reference: PMC7847540, “ClpX Is Essential and Activated by Single-Strand DNA Binding Protein in Mycobacteria” (Journal of Bacteriology, 2020)

Target: the molecule itself
Assay: size-based filtration (300-kDa cutoff filter)

B1: N-terminally 6×His-tagged truncated form of ClpX (lacking the first 60 amino acids) (enzyme)
chain: not shown
notes: ClpX ATPase, M. tuberculosis, lacking the first 60 amino acids; also called hexameric ClpX
stoichiometry N: 6
